Results on two molecules are retold here after paper PMC4019986, “Structural and biochemical characterization of the KLHL3–WNK kinase interaction important in blood pressure regulation” (Biochemical Journal, 2014).

Substitutions are numbered along the chain they refer to. Ends that are not written are not given here. Peptide text beside a SMILES is read from it. * marks the point of attachment. X1 = N[C@H]1CS[As]2SC[C@H](NC1=O)C(=O)N1CCC[C@H]1C(=O)NCC(=O)N[C@H]1CS[As](SC[C@@H](C(=O)*)NC1=O)c1c(O)ccc3c1Oc1c(ccc(O)c12)C31OC(=O)c2ccccc21

The target in test [1] is GST–KLHL3^290–587 R528H (Homo sapiens, UniProt Q9UH77, R528H). The class given is binding.
Test [2] deals with T1, KLHL3 full-length protein (residues 1–587) (human, UniProt Q9UH77-1 1-587).
T1 construct: Kelch-like protein 3 (KLHL3), human, NM_017415.2, residues 1-587; also called Kelch-like protein 3; source: Sf21 cells, expressed and purified as a DAC-(TEV protease)KLHL3 fusion protein
T1 sequence (looked up): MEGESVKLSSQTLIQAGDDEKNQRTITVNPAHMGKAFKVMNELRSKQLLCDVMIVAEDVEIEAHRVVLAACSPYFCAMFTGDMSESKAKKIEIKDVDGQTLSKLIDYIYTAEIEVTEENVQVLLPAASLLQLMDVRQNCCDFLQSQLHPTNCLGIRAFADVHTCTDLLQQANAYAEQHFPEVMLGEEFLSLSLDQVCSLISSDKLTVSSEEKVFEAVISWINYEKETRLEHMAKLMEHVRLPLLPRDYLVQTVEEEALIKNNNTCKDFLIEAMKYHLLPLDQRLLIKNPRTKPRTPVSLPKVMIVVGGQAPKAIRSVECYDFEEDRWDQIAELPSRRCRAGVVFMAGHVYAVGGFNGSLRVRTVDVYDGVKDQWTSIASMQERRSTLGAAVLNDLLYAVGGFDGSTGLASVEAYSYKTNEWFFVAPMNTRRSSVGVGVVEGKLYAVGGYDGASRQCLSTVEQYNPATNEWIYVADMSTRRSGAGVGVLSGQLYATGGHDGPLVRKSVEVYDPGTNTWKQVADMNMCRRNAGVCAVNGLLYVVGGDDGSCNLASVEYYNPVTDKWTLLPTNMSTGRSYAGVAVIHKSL
In words: fluorescence polarisation; Kelch protein titrated against 10 nM Lumio-Green-labelled peptide; 25°C; 50 mM Tris/HCl pH 7.5, 150 mM NaCl, 2 mM DTT; one-site specific binding with Hill slope; duplicates, at least 12 points per curve. The settings on record: both partners purified.

For a further test, the target named is T2, GST–KLHL3^290–587 N529K (human, UniProt Q9UH77-1 290-587, N529K).
T2 construct: KLHL3, human, NM_017415.2, Kelch domain, residues 290-587, with the Gordon's syndrome mutation N529K; Mutation found in patients with Gordon's syndrome; also called KLHL3 N529K; source: E. coli BL21, purified (glutathione–Sepharose); not shown: GST, N-terminal, kept
T2 sequence (looked up): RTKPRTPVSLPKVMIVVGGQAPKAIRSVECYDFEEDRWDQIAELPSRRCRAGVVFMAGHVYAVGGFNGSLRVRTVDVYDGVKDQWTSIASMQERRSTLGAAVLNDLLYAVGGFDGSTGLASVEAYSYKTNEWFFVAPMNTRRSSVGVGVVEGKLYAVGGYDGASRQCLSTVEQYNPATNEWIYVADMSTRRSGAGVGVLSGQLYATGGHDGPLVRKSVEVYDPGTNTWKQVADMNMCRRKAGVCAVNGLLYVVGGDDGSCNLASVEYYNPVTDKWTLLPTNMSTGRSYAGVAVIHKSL
The description is as above. The settings on record: both partners purified.

Test [3] concerns the target T3, GST–KLHL3^290–587 R528H (human, UniProt Q9UH77-1 290-587, R528H).
T3 construct: KLHL3, human, NM_017415.2, Kelch domain, residues 290-587, with the Gordon's syndrome mutation R528H; Mutation found in patients with Gordon's syndrome; also called KLHL3 R528H; source: E. coli BL21, purified (glutathione–Sepharose); not shown: GST, N-terminal, kept
T3 sequence (looked up): T2 sequence (looked up) with R239H, K240N
Described as above. The settings on record: both partners purified.

As to `CC(C)[C@H](NC(=O)[C@H](CO)NC(=O)[C@@H]1CCCN1C(=O)[C@@H]1CCCN1C(=O)CNC(=O)CNC(=O)CNC(=O)CNC(=O)CNC(=O)[C@@H]1CS[As]2SC[C@H](NC(=O)CNC(=O)[C@@H]3CCCN3C(=O)[C@@H]3CS[As](SC[C@H](N)C(=O)N3)c3c(O)ccc4c3Oc3c(ccc(O)c32)C42OC(=O)c3ccccc32)C(=O)N1)C(=O)N[C@@H](Cc1ccccc1)C(=O)N1CCC[C@H]1C(=O)N1CCC[C@H]1C(=O)N[C@@H](CCC(=O)O)C(=O)N1CCC[C@H]1C(=O)N[C@@H](CCC(=O)O)C(=O)N[C@@H](CCC(=O)O)C(=O)N1CCC[C@H]1C(=O)N[C@@H](CCC(=O)O)C(=O)N[C@@H](C)C(=O)N[C@@H](CC(=O)O)C(=O)N[C@@H](CCC(N)=O)C(=O)N[C@@H](Cc1cnc[nH]1)C(=O)N[C@@H](CCC(N)=O)C(=O)O` (stereo partly shown) [WNK4 WT 549–567] (X1-GGGGGPPSVFPPEPEEPEADQHQ-OH), the “reduction of binding relative to wild-type KLHL3” value on GST–KLHL3^290–587 R528H [1] is given as “approximately 10 fold”.

B1: 19-residue WNK4 degron peptide (WNK4 WT 549–567) (peptide)
peptide: GPPSVFPPEPEEPEADQHQ
modifications: not fully specified (N-terminus); also: Lumio Green fluorophore on N-terminal linker CCPGCCGGGG
notes: WNK4 acidic degron, residues 549-567; also called WNK4 19-residue peptide; source: synthetic peptide (GL Biochem)
As to B1, the equilibrium dissociation constant (Kd) came out at 620 nM in test [2], 6600 nM with GST–KLHL3^290–587 N529K and 1930 nM with GST–KLHL3^290–587 R528H [3].
